Results on 1 molecule are retold here after patent US5955579, “Islet-specific homeoprotein and transcriptional regulator of insulin gene expression, HOXB13” (Strang Cancer Prevention Center).

This data set deals with HoxB13 (CIX-1, Isl-3) (Rattus norvegicus). The experiment in a line: EMSA; described as high affinity; competed by 50 ng unlabeled FLAT; 50 mM KCl, 20 mM HEPES pH 7.8, 1 mM EDTA, 20% glycerol, room temperature. The note with it: tags: GST fusion (pGEX-3X) expressed in E. coli BL21, GST removed by factor Xa; GATC 5' overhangs filled in. On the procedure:
For gel shift assays, the labeled fragment was incubated 15 minutes at room temperature with buffer alone (50 mM KCI, 20 mM HEPES pH 7.8, 1 mM EDTA, 20% glycerol, 1 mM DTt and 1 mM PMSF), 1 μl bacterially expressed HoxB13 (see Example 3; "rCIX-1" in FIG. 4), 1 μl HoxB13 and 50 ng unlabeled FLAT DNA ("rCIX-1+50 ng FLAT" in FIG. 4), 5 μg Hela cell nuclear extract, 5 μg RIN cell nuclear extract, 5 μg RIN extract and 50 ng FLAT, 5 μg HeLa extract and 50 ng FLAT (respectively, as shown in FIG. 4). The samples were then run on a 5% acrylamide gel in 0.5× TBE.
Background: A gel shift assay detects complexes by their altered migration in electrophoresis.

Sequence of HoxB13 (CIX-1, Isl-3) (Rattus norvegicus) (chain, as listed by the source): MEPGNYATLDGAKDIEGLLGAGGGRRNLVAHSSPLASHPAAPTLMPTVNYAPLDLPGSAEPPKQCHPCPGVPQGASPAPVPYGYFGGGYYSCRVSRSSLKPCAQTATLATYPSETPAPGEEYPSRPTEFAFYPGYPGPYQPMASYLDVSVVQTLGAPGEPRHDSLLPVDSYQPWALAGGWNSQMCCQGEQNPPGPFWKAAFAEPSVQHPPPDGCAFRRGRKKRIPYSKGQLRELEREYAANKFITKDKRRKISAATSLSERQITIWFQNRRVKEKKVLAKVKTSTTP

B1: FLAT element probe (dsDNA)
DNA 1: GATCCCCTTGTTAATAATCTAATTACCCTAGG
DNA 2: GATCCCTAGGGTAATTAGATTATTAACAAGGG
Turning to B1, the binding result is “binds”.
